Test results published in US8299213B2, “Synthetic or natural peptides binding protein phosphatase 2A, identification method and uses” (Universite Pierre et Marie Curie (Paris 6), priority 2001, dated 2012).
“Also recorded” adds a separate entry of the source.

Columns and labels:
Hela cells [1] = assay: Cell viability test (MTT); assay type: cell-based, human; conditions: 72 h, increasing peptide concentrations (FIG. 4)
Protocol: Hela cells (10^4 for 100 μl) were seeded into 96-well plates (flat bases) with complete DMEM medium containing 2.5% penicillin/ampicillin and 10% foetal calf serum. After incubating overnight at 37° C. in a CO2 oven (5%), the cells were cultivated in the presence of different peptide concentrations. After incubating for 72 h, the medium containing the peptides was aspirated and the MTT at 0.5 mg/ml (diluted in DMEM alone) was added in an amount of 100 μl per well. Incubation was carried out in the dark at 37° C. for 30 minutes then the MTT was aspirated off and 50 μl of DMSO was added to all wells. It was necessary to wait ten minutes for complete lysis of the cells and to agitate the lysate well to homogenize dissolution of the reaction product in the wells. The plates were then read at 570 nm with a 690 nm reference filter.

Hela cells [2] = assay: Cell penetration test (biotinylated peptide-avidine peroxidase complexes); assay type: cell-based, human; conditions: biotinylated peptides, 4 hours incubation (FIG. 3)
Protocol: We analyzed the Hela line, which is derived from a human cervical carcinoma.
0.1 M Tris buffer, pH 8 containing 0.5% NP40.
25.7 ml of 0.2 M dibasic sodium phosphate+24.3 ml of 0.1 M citric acid+50 ml distilled water; adjust to pH 5.0.
4 moles of peptides were incubated with 1 mole of avidine-peroxidase. 20 minutes at ambient temperature.
Hela cells (10^4 in […]) were seeded into 96-well plates (flat bases) with complete DMEM medium in the presence of 2.5% penicillin/ampicillin and 10% foetal calf serum. After incubating overnight at 37° C. in a CO2 oven (5%), different dilutions of complexes (biotinylated-avidine peroxidase peptides) were added. After incubating for 4 hours the supernatant was aspirated and the cells were washed 3 times with PBS, trypsinated and taken up for counting in PBS. After counting, the cells were taken up in 300 μl of lysis buffer.
50 μl of OPD buffer was incubated in a 96 well ELISA plate with 50 μl of lysis buffer or 50 μl of cell lysate (in general, different successive dilutions were carried out (to ½)). In order to reveal, 50 μl of OPD solution was added (in the dark). The reaction (about 10 min) was stopped with 100 μl of 1N HCl.
The peroxidase activity was determined by reading at 490 nm in the ELISA reader (reference filter at 620 nm) and the quantity of peroxidase in the lysates was calculated from the calibration curve then extrapolated to the same number of cells (10^3 or 10^4): Peptide molecules=(6*10^23/MW of peptide)*ng of PO*10^−9. A.4. Cell Viability Test

subunit A of PP2A = molecular target: T1, subunit A of PP2A (Homo sapiens, UniProt P30153); assay: SPOT peptide membrane screened with structural subunit A of PP2A; assay type: binding; conditions: peptides on cellulose membrane, 4 μg/ml purified protein, antibody against protein A (FIGS. 1A, 2A)
T1 construct: made in house; host or cells: E. coli
From the text: A recombinant structural subunit of PP2A was expressed in E. coli and purified using the protocol described by Cohen et al (Cohen P, Alemany S, Hemmings B A, Resink T J, Stralfors P, Tung H Y. Protein phosphatase-1 and protein phosphatase 2A from rabbit skeletal muscle. Methods Enzymol 1988 159, 390-408), or that described by Bosch et al (Bosch M, Cayla X, Van Hoof C, Hemmings B A, Ozon R, Merlevede W, Goris J. the PR55 and PR65 subunits of protein phosphatase 2A from Xenopus laevis. Molecular cloning and developmental regulation of expression. Eur J Biochem 1995, 230, 1037-45).
(§1) Binding peptides derived from CK2α proteins (encoded by T parva protozoa) or Vpr protein (encoded by the HIV-1 virus) with PP2A were identified using the “spot peptides” technique described above (Frank and Overwing, 1996, Meth Mol Biol 66, 149-169).
(§2) The method consisted of synthesizing dodecapeptides, in situ on a cellulose membrane, at defined positions wherein the series of the sequence covered the whole sequence of the protein of interest (Vpr or CK2α). The peptides of two consecutive spots on the membrane overlap with an overlapped by two amino acids.
(§3) Sixty-eight (68) dodecapeptides covering the whole sequence of the Vpr protein of HIV-1 and two hundred and five (205) dodecapeptides covering the sequence for the CK2α protein of Theileria were synthesized and covalently bound to cellulose membranes.
(§4) Each prepared membrane was first saturated for 1 hour at ambient temperature with TBS containing 5% skimmed Régilait (milk) and 3% BSA then incubated overnight in the same buffer in the presence of 4 μg/ml of purified protein (subunit A of PP2A or holoenzyme PP2A1).
(§5) The membranes were washed 5 times for 15 minutes with a conventional TBST buffer (TBS+TWEEN) used for incubation then incubated a further 1 hour at ambient temperature with a second antibody (coupled with peroxidase).

holoenzyme PP2A1 = molecular target: T2, holoenzyme PP2A1 (Sus scrofa, UniProt P54612); assay: SPOT peptide membrane screened with holoenzyme PP2A1; assay type: binding, pig; conditions: for binding to the trimeric holoenzyme PP2A1: peptides on cellulose membrane, 4 μg/ml purified protein, antibodies against proteins A, B and C (FIGS. 1B, 2B)
T2 construct: Trimeric PP2A1 protein was purified to homogeneity from pig brain; from tissue; host or cells: pig brain
From the text: Trimeric PP2A1 protein was purified to homogeneity from pig brain.
as §1, §2, §3, §4, §5

T2 sequence (P54612 whole entry): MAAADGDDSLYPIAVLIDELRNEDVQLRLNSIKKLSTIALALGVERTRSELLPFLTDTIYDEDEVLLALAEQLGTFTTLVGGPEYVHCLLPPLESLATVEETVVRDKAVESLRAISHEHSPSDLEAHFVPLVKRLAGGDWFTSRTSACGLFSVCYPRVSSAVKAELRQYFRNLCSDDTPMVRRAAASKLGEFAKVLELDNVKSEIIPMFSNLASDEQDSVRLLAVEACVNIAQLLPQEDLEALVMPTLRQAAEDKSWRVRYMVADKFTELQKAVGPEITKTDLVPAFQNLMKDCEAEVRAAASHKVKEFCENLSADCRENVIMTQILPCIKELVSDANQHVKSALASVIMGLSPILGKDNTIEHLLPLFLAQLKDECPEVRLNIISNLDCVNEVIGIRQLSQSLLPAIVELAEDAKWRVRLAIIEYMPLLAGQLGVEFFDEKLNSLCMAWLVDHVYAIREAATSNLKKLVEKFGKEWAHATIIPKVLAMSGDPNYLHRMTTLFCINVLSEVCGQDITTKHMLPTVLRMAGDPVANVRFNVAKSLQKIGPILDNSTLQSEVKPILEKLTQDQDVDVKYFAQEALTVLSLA
T2 sequence (P67776 whole entry partner): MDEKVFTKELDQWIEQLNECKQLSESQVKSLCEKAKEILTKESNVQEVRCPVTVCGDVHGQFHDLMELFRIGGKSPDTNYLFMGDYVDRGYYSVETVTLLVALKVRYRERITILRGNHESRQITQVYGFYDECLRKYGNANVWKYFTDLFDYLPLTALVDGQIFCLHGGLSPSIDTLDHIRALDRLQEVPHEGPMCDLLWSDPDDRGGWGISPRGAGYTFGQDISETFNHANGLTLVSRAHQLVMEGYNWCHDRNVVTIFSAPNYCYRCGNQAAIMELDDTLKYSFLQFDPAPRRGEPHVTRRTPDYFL
T1 sequence (P30153 whole entry): as the sequence (P54612 whole entry) above, with T324S counted along it

Row | Substance | intracellular penetration into Hela cells (Hela cells [2]) | binding to the structural subunit A of PP2A (subunit A of PP2A) | other results
1 | (AHSRIG)3 (AHSRIGAHSRIGAHSRIG; listed as Theileria parva) [FD12] |  |  | effect on viability of Hela cells (Hela cells [1]): affects the viability of the Hela cell
2 | (RHSRIG)3 (RHSRIGRHSRIGRHSRIG; listed as Theileria parva) [FD11] | possibility of penetrating into the Hela cell |  | 
3 | (RQKRLI)3 (RQKRLIRQKRLIRQKRLI; listed as Theileria parva) [FD7] | possibility of penetrating into the Hela cell |  | 
4 | ALIRILQQLLFI (Human immunodeficiency virus) [SEQ ID No: 7] |  | binding the subunit A of PP2A | 
5 | IGIIQQRRTRNG (Human immunodeficiency virus) [SEQ ID No: 12] |  | binding the subunit A of PP2A | 
6 | ILQQLLFIHFRI (Human immunodeficiency virus) [SEQ ID No: 9] |  | binding the subunit A of PP2A | 
7 | IRILQQLLFIHF (Human immunodeficiency virus) [SEQ ID No: 8] |  | binding the subunit A of PP2A | 
8 | KILRLIDWGLAEFYHP (listed as Theileria parva) [T parva CK2α site 3] |  | containing a binding site | binding to the trimeric holoenzyme PP2A1 (holoenzyme PP2A1): containing a binding site
9 | LIDWGLAEFYHP (listed as Theileria parva) [peptide 131] |  |  | binding PP2A (holoenzyme PP2A1; FIG. 2, subunit A or holoenzyme not given): capable of binding PP2A
10 | RHSRIGIIQQRR (Human immunodeficiency virus) [SEQ ID No: 10] |  | binding the subunit A of PP2A | 
11 | RHSRIGIIQQRRTRNG [FD14] | possibility of penetrating into the Hela cell; also recorded: penetrating peptides | containing a binding site | effect on viability of Hela cells (Hela cells [1]): clearly affects the viability of Hela cells; binding to the trimeric holoenzyme PP2A1 (holoenzyme PP2A1): containing a binding site
12 | RHSRIGVTRQRRARNG [FD13] | possibility of penetrating into the Hela cell |  | effect on viability of Hela cells (Hela cells [1]): absence of the biological effect
13 | RKIGRGKFSEVFEG (listed as Theileria parva) [T parva CK2α site 1] |  | containing a binding site | 
14 | RRRRRRRSRGRRRRTY (listed as Theileria parva) [FD8, peptide derived from protamine] | possibility of penetrating into the Hela cell; also recorded: penetrating peptides |  | effect on viability of Hela cells (Hela cells [1]): affects the viability of Hela cells
15 | SRIGIIQQRRTR (Human immunodeficiency virus) [SEQ ID No: 11] |  | binding the subunit A of PP2A | 
16 | TVTKDKCVIKILKPVKKKKIKREIKILQNL (listed as Theileria parva) [T parva CK2α site 2] |  | containing a binding site | 
17 | VEALIRILQQLL [SEQ ID No: 6] |  | binding the subunit A of PP2A | 
18 | VEALIRILQQLLFIHFRI [HIV-1 Vpr site 2] |  | containing a binding site | 
19 | VKKKKIKREIKI (listed as Theileria parva) [FD6] | possibility of penetrating into the Hela cell |  | effect on viability of Hela cells (Hela cells [1]): does not affect the viability
